Test results published in FireProtDB (doi:10.1016/s0014-5793(98)01666-4).
“And” between values parts separate entries of the source, which are not always exact repeats. Equal entries are not always repeated.

Details: Rattus norvegicus, pH 7.4, Thermal, DSC, EDTA 10 mM, NaCl 0.20 M, transition: 2, reversible: yes, whole UniProt chain shown

B1: Parvalbumin alpha wild type, P02625 (protein)
chain: MSMTDLLSAEDIKKAIGAFTAADSFDHKKFFQMVGLKKKSADDVKKVFHILDKDKSGFIEEDELGSILKGFSSDARDLSAKETKTLMAAGDKDGDGKIGVEEFSTLVAES
- unfolding enthalpy (calorimetric) (25 °C): 70 kcal/mol and 75 kcal/mol
- unfolding enthalpy (van 't Hoff) (25 °C): 71 kcal/mol and 74 kcal/mol
- unfolding free energy (25 °C): 3.5 kcal/mol and 4.7 kcal/mol
- Tm: 53.6 °C
- unfolding enthalpy (calorimetric): 75 kcal/mol
- unfolding enthalpy (van 't Hoff): 74 kcal/mol
